Test results taken from article PMC6113214, “Outer membrane lipoprotein RlpA is a novel periplasmic interaction partner of the cell division protein FtsK in Escherichia coli” (Scientific Reports, 2018).

Target: T1, FtsZ (E. coli, UniProt P0A9A6 1-383)
T1 construct: FtsZ, tubulin homologue of the Z-ring; the species is told only of the protein in general; also called purified FtsZ
T1 sequence (looked up): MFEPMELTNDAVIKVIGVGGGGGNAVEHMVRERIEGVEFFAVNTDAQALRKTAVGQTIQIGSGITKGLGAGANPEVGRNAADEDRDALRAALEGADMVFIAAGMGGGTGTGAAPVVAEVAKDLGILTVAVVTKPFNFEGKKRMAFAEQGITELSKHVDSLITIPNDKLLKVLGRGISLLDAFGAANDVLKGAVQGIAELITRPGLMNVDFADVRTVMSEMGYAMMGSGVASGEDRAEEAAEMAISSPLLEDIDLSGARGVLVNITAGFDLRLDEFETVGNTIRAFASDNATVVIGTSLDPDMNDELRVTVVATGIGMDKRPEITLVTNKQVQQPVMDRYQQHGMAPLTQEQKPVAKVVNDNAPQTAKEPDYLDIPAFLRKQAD
Experiment: pull-down; His10-FtsKN bound to 100 uL Ni2+ IMAC resin (bait); 320 ug purified FLAG-RlpA or 250 ug purified FtsZ (prey); 4 C overnight; three washes in 20 mM Tris-HCl pH 7.0, 100 mM NaCl, 25 mM imidazole, 0.05% LDAO; elution with 1 M imidazole; Western blot; empty resin as control
Conditions: both partners purified

B1: His10-FtsKN(220), N-terminal domain of the cell division protein FtsK (amino acids 1-220) (domain or fragment, E. coli, UniProt P46889 1-220, looked up)
chain: MSQEYIEDKEVTLTKLSSGRRLLEALLILIVLFAVWLMAALLSFNPSDPSWSQTAWHEPIHNLGGMPGAWLADTLFFIFGVMAYTIPVIIVGGCWFAWRHQSSDEYIDYFAVSLRIIGVLALILTSCGLAAINADDIWYFASGGVIGSLLSTTLQPLLHSSGGTIALLCVWAAGLTLFTGWSWVTIAEKLGGWILNILTFASNRTRRDDTWVDEDEYEDD
notes: FtsK of E. coli, N-terminal membrane anchor domain, amino acids 1-220 of the 1329 amino acid protein; also called WT FtsKN; not shown: His10, N-terminal, kept
  binding result: binds
